Measurements published in the supplement of paper PMC9170038.

System: MS2 coat protein
Assay: apparent KD of MS2 coat protein; higher = weaker reporter binding
Settings: Eterna round: R107
Procedure, shortened: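 Apparent KD stands for the median, per design, of fits to normalised cluster binding curves. The curves came from titrating on-chip-transcribed RNA switches on Illumina sequencing clusters with SNAP-549-labelled MS2 coat protein, twofold from 0.7 or 1.5 nM to 3 µM. Buffer was 100 mM Tris-HCl pH 7.5, 80 mM KCl, 4 mM MgCl2, without or with constant ligand.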

[1] = input ligand: theophylline 20 uM
[2] = input ligand: theophylline 2 mM
[3] = input ligand: tryptophan 2.4 mM

Sequence	apparent KD of MS2 coat protein (input ligand: arginine 13.2 mM) [nM]	apparent KD of MS2 coat protein (input ligand: none) [nM]	apparent KD of MS2 coat protein [1] [nM]	apparent KD of MS2 coat protein [2] [nM]	apparent KD of MS2 coat protein [3] [nM]
CACAUGAGGAUCACCCAUGUCUGAACUGAAGGAGCGCUAAAUAAGGCAGGUAGGUCGCGGAAUCUUGUGUGCAUAUGCACACGGG [9.T]	18.2	20.5	28.5	31.2	25
CACGGCCAUGAGGAUCACCCAUGGAAUAAUCGAGGACCGGUACGGCCGCCACUCGUGGACCGUGACCUGUACGAAAAGUGCAGGA	20.8	26.5	31.7	26.9	10
CAGAGCUACCGGGAUACCAGAAAUGGUAUUCCUUAAUUUCUUACAUGAGGAUCACCCAUGUUCCCUUGGCAGCUUGGUAGCUCUG [ETHB #8]	48.6		107		83.7
CAGCACAUGAGGAUCACCCAUGUGAGGGAUACCAGCUCAGGCGUGGGCCCUUGGCAGCUCUCUGGCUGACGAAAGUCAGCCUGUG [#20 SameState-TheophyllineA]	14.4		24.2		13.6
CAGGUCAGGGCGGCCGCCACUGUGGCUACGGUACAUGAGGAUCACCCAUGUUUGUGGUUGAUCUACAGGACCGGGCCCUAACACG [Beabe]	1080	430	214	757	126
CAUACUUGAUCCUAUGAGCCUAUUUGUGAUACCAGCAUCUAAAUUUGCCCUUGGCAGCACUAACAUGAGGAUCACCCAUGUUAUA [JR_Nu_ExcTheophyA_Sub028]	23.7		42.5		37
CAUAUAUAUAGAAGGAGCGACAUGAGGAUCACCCAUGUCUACCACGUCGAAAGACGCUCAUGUCAGGUAGGUCGCUAUAUAUAUG [Astros-Eli-mod2]	56.2	115	154	198	147
CAUGACAUGAGGAUCACCCAUGUAUCCAGUCGAGGACCGGUACGGCCGCCACUCGGUGCCUUCAAAUUUACAGACAGGUGACAGG [theeternabot_sameState_MS2_Trp_A_30]	26.2		42.9	39.6	
CCAGCCCUUCUAGAUACCAGCUUUCAAUAUAAGACAACUCACAUGAGGAUCACCCAUGUUAGCCCUUGGCAGCUAAGAUCCACAA [theeternabot_exclusion_MS2_Theo_B_32]	46.6		67		48.5
CCAUCUACAUCGGCCGCCACUGAACCAAGGAGACAUGAGGAUCACCCAUGUAUGGGAAACCAUCAUAGGACCGGGAUGAUCUACC [doubleHook]	95.2		336	415	
CCAUGCAGGUCGGCCGCCACUACACACAUGAGGAUCACCCAUGUAGUUACUGGGUGAAGUGGCAGUAGGACCGGGACCUGCACAC [Brourdmod20]	84	289	446	601	335
CCCAACAGUGAUGCCGGUGUUGGUGGUGAUACCAGCGUCUUAUGGCGCCCUUGGCAGCACCAACAUGAGGAUCACCCAUGUGAAA [Beenerveor]	19.8		113		36.9
CCCUGGGUGGGAAGGAGCGCAUAUUCAACAUGAGGAUCACCCAUGUACAGACGUGAGUCAUUGCAGGUAGGUCGCCCACCCAGGG [SS-ArgB21]	12.9	15.7	20.4	14.8	15.5
CCGCACAUGAGGAUCACCCAUGUCAGGGAUACCAGCCCAGACAUGGGCCCUUGGCAGCUUUGUAGCUGACGAAAGUCAGCAGCGG [Omei Theo A SS A v2]	17.6	33.6	62.3	101	59.2
CCUAUGCAGUCGGCCGCCACUGAACAUGAGGAUCACCCAUGUAAUUAAAAUUAAGAUCCUGAAAUCAGGACCGGGACUGUAUAGG [Ex Tryptophan B 4]	25.5	1520	280	140	196
CCUCGGGACCGAAGGAGCGAGAUAACAACAAUGGGUCUCUACACAUGAGGAUCACCCAUGUCUCAGGUAGGUCGCGGUACCUUAG [Exclusion Arginine B GF23]	137	261	287	491	238
CCUGAUGAGUCGGCCGCCACUCCAGUUGUAUUACAGGUUUUCGUAGACAUGAGGAUCACCCAUGUGAGGACCGGGACACACACAG [theeternabot_exclusion_MS2_Trp_B_21]	11.7	11.3	23.8	17.4	17.2
CCUUAAUAUAGAAGGAGCGCGCUAACAUGAGGAUCACCCAUGUAAAGGGUUUUGGGCUUAGCGCAGGUAGGUCGCUAUAAGAACC [Arg B Ex t2]	60.1	106	95	127	93.9
CGAAAGCUCCUUAUGUGCUUUCGACUGGAAGGAGCGAGCGAAAGCUCAGGUAGGUCGCCAGAAACAUGAGGAUCACCCAUGUAAU [(A)''-(M)'-(A)'(Arg1)-(Arg2)-(M1)-(M2)_Design9]	29.8	18	25.6	27.2	18.5

Sequence	apparent KD of MS2 coat protein (input ligand: arginine 13.2 mM) [nM]	apparent KD of MS2 coat protein (input ligand: none) [nM]	apparent KD of MS2 coat protein [1] [nM]	apparent KD of MS2 coat protein [2] [nM]	apparent KD of MS2 coat protein [3] [nM]
CGAAUACCAAUUGAUACCAGCAUGUUAACAUGAGGAUCACCCAUGUUAAGGAUAACAUAAUGCCCUUGGCAGCAACGUAAAUUCG [Aa]	19.2		22.9		19.6
CGACUGUAAAGUCGACCGGUCAUCAAUAAUCGAGGACCGGUACGGCCGCCACUCGAUGUGAUUUCACAUGAGGAUCACCCAUGUA [Tryptophan A 17]	24.1		26.3	29.1	
CGAGUAAGAACAAUCGAAUAACGGUUUUCGCGAGGACCGGUACGGCCGCCACUCGUGUGAUAUCACACAUGAGGAUCACCCAUGU [3'end-1]	61.3		96.7	101	
CGAGUAGGUUCAAUCGAAUAACGGUUUUCGCGAGGACCGGUACGGCCGCCACUCGUGUGAUAUCACACAUGAGGAUCACCCAUGU [3'end-1]	33.5		49.2	68	
CGAUAUAAGACGGCCGCCACUAUUAAGUAACAAAAUAAACAUGAGGAUCACCCAUGUACAUGGGAUAGGACCGGGUCCAAUAACG [A1]	48.3		163	166	
CGAUAUGAGGUCGAUACCAGCAGCUUCAAGCACAUGAGGAUCACCCAUGUCCAUUUUACUUGCCCUUGGCAGCGACUUUGGAAAC [theeternabot_sameState_MS2_Theo_B_23]	36.2		34.9		38.4
CGCCCAGUUACGGCCGCCACUUCGAUGGCAAAUGUCGAGCCUCCACAUGAGGAUCACCCAUGUCGAAGGACCGGGUACUGCUUGC [theeternabot_sameState_MS2_Trp_B_17]	29.4		44.4	38	
CGCCUACAGGUGUACUAUUGUGGUGAAGAUACCAGAUAGCCCAAUAUCCCUUGGCAGCUUCAGACAUGAGGAUCACCCAUGUAUC [theeternabot_exclusion_MS2_Theo_A_30]	17.8		18.7		15.5
CGGCCCUCACUUGAGGAACACCCAAGUGAUACCAGCCUGGAAACAGGCCCUUGGCAGCACUAGGUCAUCAAAGAUGACCAAGCCG [TheoAX 29 #OpenEnded #AlternativeMS2]	17.7	23.8	42.8	373	23.1
CGGUUUGUGAUGGAUACCAGCAGAGAAAAUGUUUAUCCUAACAUGAGGAUCACCCAUGUAUGCCCUUGGCAGCUGUUGUGGGCUG [8.V]	43.3		80.4		52.5
CGUAUUGGAAACAGUACGAGUGAUCCGGUCCGAGGACCGGUACGGCCGCCACUCGAAAUUAAUAAACAUGAGGAUCACCCAUGUA [Ex Tryptophan A 10]	14.8		19.6	20.2	
CGUAUUGGAAACAGUACGAGUGAUCCGGUCCGAGGACCGGUACGGCCGCCACUCGAUAUAAAUAAACAUGAGGAUCACCCAUGUA [Ex Tryptophan A 12]	17.1		16.9	20.3	
CUACAUUUGUAGAAACCGGUCAACAAUAUUCGAGGACCGGUACGGCCGCCACUCGUAUAAUUUAAUACAUGAGGAUCACCCAUGU [Tryptophan A 4]	14.8		18.2	17.1	
CUACAUUUGUAGAAACCGGUCACCAUUACUCGAGGACCGGUACGGCCGCCACUCGUGUCAUGUGAUACAUGAGGAUCACCCAUGU [Tryptophan A 10]	21.7		26.2	27.1	
CUCCCACUAUCUGAUACCAGAGGAUAAACGUAGACUGGGAACAUGAGGAUCACCCAUGUCCUCCCUUGGCAGCAGGACUUAUCUC [theeternabot_exclusion_MS2_Theo_B_29]	22.2		29.9		22.2
CUCCCGUGGUCGGCCGCCACUGGAGGCCUCGCGCGACAUGAGGAUCACCCAUGUUGGCCCGGCCUCAGGACCGGGAUCGCGUGAG [#1 Same State - Tryptophan B Attempt #7 (HarryS)]	11.2	13.7	17.9	11.9	10.9
CUCGUCAACUCGGCCGCCACUGACGUGUGGUCAGGCCUGUAGAAACACAUGAGGAUCACCCAUGUCAGGACCGGGAGCUUUAUUA [theeternabot_exclusion_MS2_Trp_B_26]	31.8		73.5	61.6	
CUCUGAGUCCGUAAGGACUCAGAGGCGGAUACCAGCGAGGUCCAUCGCCCUUGGCAGCCGAACAUGAGGAUCACCCAUGUCGGUA [#1 Same State - Theophylline A Attempt #25 (HarryS)]	11.6	9.76	12.6	19.8	11.5
